Measured values taken from patent US20030157712A1, “Methods for determining cell responses through EphB receptors” (priority 1997, published 2003).

Target: endogenous EphB1 receptor of P19 cells (teratocarcinoma-derived, pluripotent murine cells) (murine) (UniProt Q8CBF3)
Assay: cell-based or functional assay

Chain of endogenous EphB1 receptor of P19 cells (teratocarcinoma-derived, pluripotent murine cells) (murine) (Q8CBF3 18-984): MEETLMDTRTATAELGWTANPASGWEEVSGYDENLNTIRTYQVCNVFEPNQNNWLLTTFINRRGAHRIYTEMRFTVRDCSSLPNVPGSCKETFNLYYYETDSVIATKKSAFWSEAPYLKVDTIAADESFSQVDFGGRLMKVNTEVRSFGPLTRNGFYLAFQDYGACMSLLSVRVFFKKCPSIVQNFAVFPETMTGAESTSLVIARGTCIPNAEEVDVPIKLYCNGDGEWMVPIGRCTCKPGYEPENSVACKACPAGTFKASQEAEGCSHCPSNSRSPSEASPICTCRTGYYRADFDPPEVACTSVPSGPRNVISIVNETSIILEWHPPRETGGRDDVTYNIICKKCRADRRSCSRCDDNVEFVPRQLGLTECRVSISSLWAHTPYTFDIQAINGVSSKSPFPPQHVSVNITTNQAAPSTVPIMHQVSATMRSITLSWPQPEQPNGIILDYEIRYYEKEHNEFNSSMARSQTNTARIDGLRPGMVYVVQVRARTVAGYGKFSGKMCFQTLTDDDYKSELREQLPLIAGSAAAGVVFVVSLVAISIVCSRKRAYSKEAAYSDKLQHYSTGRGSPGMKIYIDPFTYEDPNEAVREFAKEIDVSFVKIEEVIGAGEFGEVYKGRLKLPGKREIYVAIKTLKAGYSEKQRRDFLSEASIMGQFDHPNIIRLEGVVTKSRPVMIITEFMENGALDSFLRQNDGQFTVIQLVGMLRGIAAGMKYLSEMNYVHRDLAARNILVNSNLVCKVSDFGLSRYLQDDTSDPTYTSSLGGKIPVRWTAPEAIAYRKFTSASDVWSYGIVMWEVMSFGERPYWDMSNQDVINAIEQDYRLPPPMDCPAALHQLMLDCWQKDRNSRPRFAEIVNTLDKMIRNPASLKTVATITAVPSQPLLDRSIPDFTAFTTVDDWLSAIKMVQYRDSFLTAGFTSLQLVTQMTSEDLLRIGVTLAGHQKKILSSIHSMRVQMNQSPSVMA

preclustered multimeric ephrin-B1/Fc (ephrin-B1/Fc + anti-Fc) (from UniProt P98172 28-237; P01857 99-330) (Fc fusion)
% attached P19 cells in wells preadsorbed with ligand and fibronectin: 60%
